Where a chain is given by its changes, count along the chain named. Like-named read-outs stand apart in the source and are kept apart here.
What was measured:
[1] = biological target: H3 hemagglutinin of H3N2 strain X-31 (influenza A virus X-31 (H3N2), UniProt P03437 17-566); experiment: cell-based or functional assay
[2] = biological target: T1, H1 hemagglutinin (A/Solomon Islands/3/2006) (influenza A virus A/Solomon …); experiment: ELISA on coated HA, relative Kd (4-parameter fit)
[3] = biological target: T1, H1 hemagglutinin (A/Solomon …); experiment: ELISA on coated HA, relative Kd (4-parameter fit); remark: listed apart in the source
[4] = biological target: T2, H1 hemagglutinin (A/Solomon Islands/20/1999) (influenza A virus A/Solomon …); experiment: ELISA on coated HA
T2 construct: ELISA antigen

[5] = biological target: H1 hemagglutinin (A/California/04/2009) (influenza A virus A/California/04/2009 …); experiment: cell-based or functional assay
[6] = biological target: H1 hemagglutinin of H1N1 Solomon Islands (isolate not specified); experiment: cell-based or functional assay
[7] = biological target: H3 hemagglutinin (A/Fujian/411/2003) (influenza A virus A/Fujian/411/2003 …); experiment: cell-based or functional assay
[8] = biological target: H3 hemagglutinin (A/Shangdong/09/93) (influenza A virus A/Shangdong/09/93 …); experiment: cell-based or functional assay
[9] = biological target: H5 hemagglutinin (A/Duck/MN/1525/81) (influenza A virus A/Duck/MN/1525/81 …); experiment: cell-based or functional assay

B1: Ab A18 (antibody, V domains shown)
VH: EVQLLESGGGLVKPGQSLKLSCAASGFTFTSYGMHWVRQPPGKGLEWVAVISYDGSYKYYADSVQGRFTISRDNSKNTLYLQMNSLRAEDTAVYYCAKDSRLRSLLYFEWLSQGYFNPWGAGTTLTVSS
VL: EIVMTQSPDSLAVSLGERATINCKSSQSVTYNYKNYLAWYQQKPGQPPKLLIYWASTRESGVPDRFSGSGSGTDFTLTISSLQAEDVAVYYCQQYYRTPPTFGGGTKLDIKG
IC50 (RT-PCR, neutralisation) [1]: 0.4 µg/mL | Kd [2]: 0.144 nM

B2: Ab 032 (antibody, V domains shown)
VH: B1 VH with E1Q, S7T, G33A, I51V, S56N, A121Q
VL: DIQMTQSPSSLSASVGDRVTITCRSSQSITFNYKNYLAWYQQKPGKAPKLLIYWGSYLESGVPSRFSGSGSGTDFTLTISSLQPEDFATYYCQQHYRTPPSFGQGTKVEIK
Kd [3]: < 0.025 nM

B3: Ab 044 (antibody, V domains shown)
VH: B1 VH with E1Q, S7T, G33A, I51V, S56N, A121Q
VL: B2 VL with N32D
Kd [4]: < 0.5 nM | EC50, Neutral Red (CPE inhibition) [5]: 5.1 µg/mL | EC50, Neutral Red (CPE inhibition) [6]: 1.2 µg/mL | EC50, Neutral Red (CPE inhibition) [7]: 0.3 µg/mL | EC50, Neutral Red (CPE inhibition) [8]: 0.6 µg/mL | EC50, Neutral Red (CPE inhibition) [9]: 1.5 µg/mL
